Here are results for six molecules from patent publication US20230295345A1 (published 2023).

Assay [1] concerns the target T1, cynomolgus monkey TMPRSS6 expressed on HEK293T cells (CynoTMPRSS6-(His)6) (cynomolgus monkey, UniProt Q8IU80 10-811 (human entry)).
T1 chain: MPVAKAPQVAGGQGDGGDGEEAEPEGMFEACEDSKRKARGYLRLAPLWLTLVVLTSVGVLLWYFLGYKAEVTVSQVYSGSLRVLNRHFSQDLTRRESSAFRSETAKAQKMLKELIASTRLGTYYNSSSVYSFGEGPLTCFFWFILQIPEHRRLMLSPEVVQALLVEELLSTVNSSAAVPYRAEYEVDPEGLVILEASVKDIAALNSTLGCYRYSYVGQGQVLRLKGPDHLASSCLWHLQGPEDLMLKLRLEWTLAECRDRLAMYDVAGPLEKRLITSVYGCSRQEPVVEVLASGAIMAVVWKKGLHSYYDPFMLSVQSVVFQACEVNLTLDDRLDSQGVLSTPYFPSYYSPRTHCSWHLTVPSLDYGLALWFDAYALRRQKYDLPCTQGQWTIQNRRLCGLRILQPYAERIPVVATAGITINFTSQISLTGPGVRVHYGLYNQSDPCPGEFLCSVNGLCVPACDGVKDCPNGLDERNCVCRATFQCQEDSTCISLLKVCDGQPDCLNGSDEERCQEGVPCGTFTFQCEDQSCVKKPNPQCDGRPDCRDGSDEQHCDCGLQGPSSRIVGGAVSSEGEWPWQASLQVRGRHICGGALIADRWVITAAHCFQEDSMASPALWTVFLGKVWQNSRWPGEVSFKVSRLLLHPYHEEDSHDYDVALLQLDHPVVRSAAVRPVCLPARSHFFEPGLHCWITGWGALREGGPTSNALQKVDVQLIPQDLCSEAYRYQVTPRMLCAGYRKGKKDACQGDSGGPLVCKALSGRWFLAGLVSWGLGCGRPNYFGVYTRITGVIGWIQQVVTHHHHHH
The assay is described as follows: cell surface ELISA on fixed HEK293T cells expressing cynomolgus monkey TMPRSS6. The method, then:
HEK293T cells stably expressing mouse TMPRSS6 (generated by LakePharma Inc as described above, FIGS. 4J, 4L, 4N, 4P, 4R, 4T) or cynomolgus monkey (generated in house as described above, FIGS. 4K, 4M, 4O, 4Q, 4S, 4U) were fixed with methanol (100%), and washed with dPBS (Dulbecco’s phosphate-buffered saline, Corning Cellgro) before incubation with various concentrations of anti-TMPRSS6 antibodies and their humanized variants diluted in BSA medium (DMEM + 1% Pen/Strep + 10 mM HEPES + 1 mg/ml BSA (Sigma-Aldrich)). Purified mouse IgG (FIGS. 4J-4O) or Human IgG1 (FIGS. 4P-4U) was used as a control. After incubation, cells were washed with BSA medium and then incubated with goat anti-mouse (Invitrogen, FIGS. 4J-4O) or anti-human (Millipore, FIGS. 4P-4U) IgG conjugated with HRP as a 2° antibody. Finally, cells were washed with dPBS to remove unbound antibody and color developed with ELISA liquid substrate (Sigma-Aldrich), followed by stopping the reaction with addition of the same volume of ELISA liquid substrate of 1 M H₂SO₄. Bound antibody was measured by absorbance at OD₄₅₀ₙₘ.
For orientation: In an ELISA, binding on a coated surface is turned into a signal by an enzyme label.

The target of assay [2] is T1, cynomolgus monkey TMPRSS6 expressed on …. The assay is described as follows: FACS on HEK293T cells transiently expressing cynomolgus monkey TMPRSS6. As to the method:
(§1) Selected anti-TMPRSS6 antibodies were tested to determine whether any are capable of binding to TMPRSS6 from mouse and/or cynomolgus monkey. HEK293T cells stably expressing human TMPRSS6 (HuTMPRSS6-(His)₆) (generated by LakePharma Inc as described above), HEK293T cells stably expressing mouse TMPRSS6 (MoTMPRSS6-(His)₆) (SEQ ID NO: 98) (generated by LakePharma Inc as described above) and HEK293T cells transiently expressing cynomolgus monkey TMPRSS6 (CynoTMPRSS6-(His)₆) (SEQ ID NO: 99) (generated in house) were collected. HEK293T cells stably expressing human TMPRSS6 were used as a positive control and HEK293T cells were used as a negative control (as described above). Cells were blocked with dPBS + 3% BSA before incubation with anti-TMPRSS6 antibodies diluted in dPBS + 3% BSA. After incubation, cells were washed with dPBS and followed by another incubation with goat anti-mouse IgG conjugated with AlexaFluor-488 as a 2° antibody (Invitrogen). At last, cells were washed with dPBS to remove unbound antibody, re-suspended with dPBS + 1 mM EDTA, and then subjected to FACS analysis using a NOVOCYTE® Flow Cytometer (ACEA Biosciences, Inc., San Diego CA). Bound antibody was determined by excitation at 488 nm and measurement of emission (FITC-A) at 530 nm. Results for these assays are shown in histogram plots in FIGS. 4A-4I.

The target in assay [3] is T2, mouse TMPRSS6 expressed on HEK293T cells (MoTMPRSS6-(His)6) (mouse, UniProt Q9DBI0 1-811).
T2 construct: stably expressed in HEK293T cells; also called murine TMPRSS6
T2 sequence: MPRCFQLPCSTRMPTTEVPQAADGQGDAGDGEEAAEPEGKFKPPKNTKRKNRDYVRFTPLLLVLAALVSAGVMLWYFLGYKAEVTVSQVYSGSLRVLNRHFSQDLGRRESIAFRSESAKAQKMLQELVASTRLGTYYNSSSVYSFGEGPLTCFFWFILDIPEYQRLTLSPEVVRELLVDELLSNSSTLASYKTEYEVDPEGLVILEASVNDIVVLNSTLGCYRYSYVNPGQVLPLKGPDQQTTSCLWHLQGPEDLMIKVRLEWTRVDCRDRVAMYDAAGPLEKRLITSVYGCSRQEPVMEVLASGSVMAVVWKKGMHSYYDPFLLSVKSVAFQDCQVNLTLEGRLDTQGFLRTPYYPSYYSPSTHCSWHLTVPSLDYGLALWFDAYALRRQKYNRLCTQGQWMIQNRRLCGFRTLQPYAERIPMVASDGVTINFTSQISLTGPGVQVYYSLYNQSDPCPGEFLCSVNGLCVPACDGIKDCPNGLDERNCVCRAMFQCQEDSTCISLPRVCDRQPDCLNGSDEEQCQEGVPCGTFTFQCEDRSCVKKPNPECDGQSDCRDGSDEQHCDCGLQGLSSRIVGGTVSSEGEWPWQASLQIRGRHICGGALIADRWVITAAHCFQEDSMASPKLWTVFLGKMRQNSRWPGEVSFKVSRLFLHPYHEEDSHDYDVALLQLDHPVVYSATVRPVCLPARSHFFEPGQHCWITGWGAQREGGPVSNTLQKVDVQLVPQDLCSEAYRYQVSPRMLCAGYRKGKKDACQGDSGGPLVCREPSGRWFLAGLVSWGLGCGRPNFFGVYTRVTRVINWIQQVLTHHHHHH
In words: FACS on HEK293T cells stably expressing mouse TMPRSS6. The method, then: as §1

B1: hzMWTx-001Var anti-TMPRSS6 antibody (antibody, human IgG1, kappa, N297A, V domains shown)
VH: EVQLVQSGAEVKKPGASVKVSCKASGYTFTSYWITWVRQAPGQRLEWIGNIYPGSGSTYYNEKFKSKATITRDTSSRTAYMELSSLRSEDTAVYYCAPYDADYAMDYWGQGTLVTVSS
VL: DIQMTQSPSSLSASVGDRVTITCKASQDISNYLSWFQQKPGKAPKLLIYRANRLVEGVPSRFSGSGSGTDFTLTISSLQPEDFATYFCLQYDEFPLTFGGGTKVEIKR
notes: Humanized variant of MWTx-001, human IgG1/kappa
As for B1, in assay [1], the binding result was “binds”.

B2: MWTx-003 anti-TMPRSS6 antibody (antibody, mouse IgG2b, kappa, V domains shown)
VH: EVQLQQSGAELVKPGASVKLSCTASGFNIEDYYIHWVKERTEQGLEWIGRIDPEDGETTYAPQFQGKATIIPDTSSNTAYMQLSSLTSEDAAVYYCARSIYLDPMDYWGQGTSVTVSS
VL: DIVMTQSHKFMSTSVGDRVSITCKASQDVTTAVAWYQQKPGQSPKILIYWATTRHTGVPDRFTGSISGTTYILTISSVQAEDLALYYCQQHYSTPYTFGGGTKLEIKR
notes: Mouse monoclonal antibody from a hybridoma (ATCC PTA-126761); also called r4K12B (recombinantly expressed version, same HC and LC)
Take B2: in assay [2], the binding result was “binds”.

B3: MWTx-001 anti-TMPRSS6 antibody (antibody, mouse IgG2a, kappa, V domains shown)
VH: QVQLQQPGAELAKPGASVKMSCKASGYTFTSYWITWVKQRPGQDLEWIGNIYPGSGSTYYNEKFKSKATLTVDTSSRTAYMQLSSLTSADSAVYYCAPYDSDYAMDYWGQGTSVTVSS
VL: DIKMTQSPSSMYASLGERVTITCKASQDINNYLSWFQQKPGKSPKTLIYRANRLVDGVPSRVSGSGSGQDYSLTISSLEYEDVGIYFCLQYDEFPLTFGAGTKLELKR
notes: Mouse monoclonal antibody from a hybridoma (ATCC PTA-126759)
As to B3, the binding result in assay [1] was “binds”.

B4: hzMWTx-003Var anti-TMPRSS6 antibody (antibody, human IgG1, kappa, L234A L235A, V domains shown)
VH: QVQLVQSGAEVKKPGASVKVSCKASGFNIEDYYMHWVRQAPGQRLEWMGRIDPEDAETTYSPKFQGRVTIIPDTSANTAYMELSSLRSEDTAVYYCARSIYLDPMDYWGQGTLVTVSS
VL: DIQMTQSPKSLSASVGDRVTITCRASQDVTTALAWYQQKPGQSPKLLIYWATTRHSGVPSRFSGSGSGTDFTLTISSLQPEDFATYYCQQHYSTPYTFGQGTKLEIKR
notes: Humanized variant of MWTx-003, human IgG1/kappa
B4: in assay [1], the binding result was “binds”.

B5: MWTx-002 anti-TMPRSS6 antibody (antibody, mouse IgG2b, kappa, V domains shown)
VH: EVQLQQSGAELVKPGASVKLSCTASGFNIKDYYIHWVKERTEQGLEWFGRIDPEDGESEYAPKFQGKATLTADTSSNTAYLQLSSLTSEDTAVYYCTRGDSMMVTYFDYWGQGTTLTVSS
VL: DIVMTQSHKFMSTSVGDRVSITCKASQDVSTAVAWYQQKPGQSPKLLIYWAFTRHTGVPDRFTSTGSGTDYALTISSVQAEDLALYYCQQHYRSPWTFGGGTKLEIKR
notes: Mouse monoclonal antibody from a hybridoma (ATCC PTA-126760)
As for B5, the binding result is on record as “no binding” in assay [3] and “binds” in assay [1].

B6: hzMWTx-002Var anti-TMPRSS6 antibody (antibody, human IgG1, kappa, N297A, V domains shown)
VH: EVQLVQSGAEVKKPGASVKVSCKASGFNIKDYYIHWVRQATGQGLEWMGRIDPEDAESEYAPKFQGRVTITADTSTDTAYMELSSLRSEDTAVYYCTRGDSMMVTYFDYWGQGTLVTVSS
VL: DIQMTQSPSSLSASVGDRVTITCKASQDVSTAVAWYQQKPGKAPKLLIYWAFTRHTGVPSRFSGSGSGTDYALTISSLQPEDFATYYCQQHYRSPWTFGGGTKVEIKR
notes: Humanized variant of MWTx-002, human IgG1/kappa
Take B6: in assay [1], the binding result was “binds”.
